Source: US20250109215A1 (Xencor, published 2025)

Experiments:
CD3 [1] = molecular target: T1, CD3 (Homo sapiens (Human), UniProt P07766 23-126; P04234 22-105); test: Biacore
T1 construct: not shown: The Fc carrier of the Sino Biological CD3 delta-epsilon-Fc heterodimer; copies: 1 + 1

CD3 [2] = molecular target: T1, CD3; test: Biacore; column head 'KD (nM)*', anti-CD3 scFv-Fc H1.31_L1.47
human CD3 [3] = molecular target: T2, human CD3 (human, UniProt P07766 23-126; P04234 22-105); test: SPR; human CD3-Fc (printed 'CD388-Fc', Sino Biological) covalently bound to the chip; test article passed over at 3.125, 12.5, 50 and 200 nM
T2 construct: The legend says only human CD3

human CD3 [4] = molecular target: T2, human CD3; test: SPR; human CD3-Fc (printed 'CD388-Fc', Sino Biological) covalently bound to the chip; test article passed over at 31.25, 125, 500 and 2000 nM
cyno CD3 [5] = molecular target: T3, cyno CD3 (cynomolgus monkey, UniProt Q95LI5 22-117; Q95LI8 22-105); test: SPR; cynomolgus monkey CD3-Fc (printed 'CD388-Fc', Sino Biological) covalently bound to the chip; test article passed over at 3.125, 12.5, 50 and 200 nM
T3 construct: The legend says only cyno CD3; also called cynomolgus monkey CD3

cyno CD3 [6] = molecular target: T3, cyno CD3; test: SPR; cynomolgus monkey CD3-Fc (printed 'CD388-Fc', Sino Biological) covalently bound to the chip; test article passed over at 31.25, 125, 500 and 2000 nM

T3 sequence (Q95LI5 22-117, form in doubt, chain 1 of 2): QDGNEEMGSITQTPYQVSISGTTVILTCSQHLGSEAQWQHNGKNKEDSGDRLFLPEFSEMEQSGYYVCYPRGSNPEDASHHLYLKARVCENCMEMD
T3 sequence (Q95LI8 22-105, form in doubt, chain 2 of 2): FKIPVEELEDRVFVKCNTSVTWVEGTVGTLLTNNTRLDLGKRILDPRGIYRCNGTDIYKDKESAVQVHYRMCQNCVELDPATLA
T1 sequence (P07766 23-126 limits assumed, chain 1 of 2): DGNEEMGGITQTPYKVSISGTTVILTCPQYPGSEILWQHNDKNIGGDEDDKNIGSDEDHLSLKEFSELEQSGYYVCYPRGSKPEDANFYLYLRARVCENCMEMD
T1 sequence (P04234 22-105 limits assumed, chain 2 of 2): as the sequence (Q95LI8 22-105, form in doubt, chain 2 of 2) above, with V5I, K15N, V20I, T32S, N33D, N34I, A64T, N74S, L83V counted along it
T2 sequence (P07766 23-126, chain 1 of 2): as the sequence (P07766 23-126 limits assumed, chain 1 of 2) above
T2 sequence (P04234 22-105, chain 2 of 2): as the sequence (Q95LI8 22-105, form in doubt, chain 2 of 2) above, with V5I, K15N, V20I, T32S, N33D, N34I, A64T, N74S, L83V counted along it

Binder	Fold Decrease in CD3 binding from H1.30_L1.47 (CD3 [1]) [fold]	Kd (CD3 [2]) [µM]	Kd (human CD3 [3]) [µM]	Kd (human CD3 [4]) [µM]	Kd (cyno CD3 [5]) [µM]	Kd (cyno CD3 [6]) [µM]
XENP14701 (bispecific antibody, anti-CD38 x anti-CD3; copies: 1 + 1 + 1) heavy: EVQLVESGGGLVQPGGSLRLSCAASGFDFSRSWMNWVRQAPGKGLEWVSEINPDSSTINYATSVKGRFTISRDNSKNTLYLQMNSLRAEDTAVYYCARYGNWFPYWGQGTLVTVSSASTKGPSVFPLAPSSKSTSGGTAALGCLVKDYFPEPVTVSWNSGALTSGVHTFPAVLQSSGLYSLSSVVTVPSSSLGTQTYICNVNHKPSDTKVDKKVEPKSCDKTHTCPPCPAPPVAGPSVFLFPPKPKDTLMISRTPEVTCVVVDVKHEDPEVKFNWYVDGVEVHNAKTKPREEEYNSTYRVVSVLTVLHQDWLNGKEYKCKVSNKALPAPIEKTISKAKGQPREPQVYTLPPSREEMTKNQVSLTCDVSGFYPSDIAVEWESDGQPENNYKTTPPVLDSDGSFFLYSKLTVDKSRWEQGDVFSCSVMHEALHNHYTQKSLSLSPGK scFv-Fc: not shown light: DIVMTQSPSSLSASVGDRVTITCRASQNVDTNVAWYQQKPGQSPKALIYSASYRYSGVPDRFTGSGSGTDFTLTISSLQPEDFATYFCQQYDSYPLTFGGGTKLEIKRTVAAPSVFIFPPSDEQLKSGTASVVCLLNNFYPREAKVQWKVDNALQSGNSQESVTEQDSKDSTYSLSSTLTLSKADYEKHKVYACEVTHQGLSSPVTKSFNRGEC	330	1.64				
XENP14703 (bispecific antibody, anti-CD38 x anti-CD3) heavy: EVQLVESGGGLVQPGGSLRLSCAASGFDFSRSWMNWVRQAPGKGLEWVSEINPDSSTINYATSVKGRFTISRDNSKNTLYLQMNSLRAEDTAVYYCARYGNWFPYWGQGTLVTVSSASTKGPSVFPLAPSSKSTSGGTAALGCLVKDYFPEPVTVSWNSGALTSGVHTFPAVLQSSGLYSLSSVVTVPSSSLGTQTYICNVNHKPSDTKVDKKVEPKSCDKTHTCPPCPAPPVAGPSVFLFPPKPKDTLMISRTPEVTCVVVDVKHEDPEVKFNWYVDGVEVHNAKTKPREEEYNSTYRVVSVLTVLHQDWLNGKEYKCKVSNKALPAPIEKTISKAKGQPREPQVYTLPPSREEMTKNQVSLTCDVSGFYPSDIAVEWESDGQPENNYKTTPPVLDSDGSFFLYSKLTVDKSRWEQGDVFSCSVMHEALHNHYTQKSLSLSPGK scFv-Fc: not shown light: DIVMTQSPSSLSASVGDRVTITCRASQNVDTNVAWYQQKPGQSPKALIYSASYRKSGVPDRFTGSGSGTDFTLTISSLQPEDFATYFCQQYDSYPLTFGGGTKLEIKRTVAAPSVFIFPPSDEQLKSGTASVVCLLNNFYPREAKVQWKVDNALQSGNSQESVTEQDSKDSTYSLSSTLTLSKADYEKHKVYACEVTHQGLSSPVTKSFNRGEC	330	1.64				
XENP14388 (bispecific antibody, anti-CD3 scFv H1.31_L1.47; also called Anti-CD20 (C2B8_H1.202_L1.113) x Anti-CD3 (H1.31_L1.47) Fab-scFv-Fc; CD3low) HC 1 (Fab-Fc): QVQLVQSGAEVKKPGASVKVSCKASGYTFTSYNMHWVRQAPGQRLEWMGAIYPGNGATSYSQKFQGRVTITADTSASTAYMELSSLRSEDTAVYYCARSYYMGGDWYFDVWGAGTLVTVSSASTKGPSVFPLAPSSKSTSGGTAALGCLVKDYFPEPVTVSWNSGALTSGVHTFPAVLQSSGLYSLSSVVTVPSSSLGTQTYICNVNHKPSDTKVDKKVEPKSCDKTHTCPPCPAPPVAGPSVFLFPPKPKDTLMISRTPEVTCVVVDVKHEDPEVKFNWYVDGVEVHNAKTKPREEEYNSTYRVVSVLTVLHQDWLNGKEYKCKVSNKALPAPIEKTISKAKGQPREPQVYTLPPSREEMTKNQVSLTCDVSGFYPSDIAVEWESDGQPENNYKTTPPVLDSDGSFFLYSKLTVDKSRWEQGDVFSCSVMHEALHNHYTQKSLSLSPGK HC 2 (scFv-Fc): not shown light: QIVLTQSPSSLSASVGDRVTITCRASWSVSYIHWFQQKPGKSPKPLIYATSNLASGVPVRFSGSGSGTDYTLTISSLQPEDFATYYCQQWTHNPPTFGGGTKVEIKRTVAAPSVFIFPPSDEQLKSGTASVVCLLNNFYPREAKVQWKVDNALQSGNSQESVTEQDSKDSTYSLSSTLTLSKADYEKHKVYACEVTHQGLSSPVTKSFNRGEC			~2	1.2	~1	1.2
XENP14390 (bispecific antibody, anti-CD3 scFv H1.33_L1.47; also called Anti-CD20 (C2B8_H1.202_L1.113) x Anti-CD3 (H1.33_L1.47) Fab-scFv-Fc; CD3med) HC 1 (Fab-Fc): QVQLVQSGAEVKKPGASVKVSCKASGYTFTSYNMHWVRQAPGQRLEWMGAIYPGNGATSYSQKFQGRVTITADTSASTAYMELSSLRSEDTAVYYCARSYYMGGDWYFDVWGAGTLVTVSSASTKGPSVFPLAPSSKSTSGGTAALGCLVKDYFPEPVTVSWNSGALTSGVHTFPAVLQSSGLYSLSSVVTVPSSSLGTQTYICNVNHKPSDTKVDKKVEPKSCDKTHTCPPCPAPPVAGPSVFLFPPKPKDTLMISRTPEVTCVVVDVKHEDPEVKFNWYVDGVEVHNAKTKPREEEYNSTYRVVSVLTVLHQDWLNGKEYKCKVSNKALPAPIEKTISKAKGQPREPQVYTLPPSREEMTKNQVSLTCDVSGFYPSDIAVEWESDGQPENNYKTTPPVLDSDGSFFLYSKLTVDKSRWEQGDVFSCSVMHEALHNHYTQKSLSLSPGK HC 2 (scFv-Fc): not shown light: QIVLTQSPSSLSASVGDRVTITCRASWSVSYIHWFQQKPGKSPKPLIYATSNLASGVPVRFSGSGSGTDYTLTISSLQPEDFATYYCQQWTHNPPTFGGGTKVEIKRTVAAPSVFIFPPSDEQLKSGTASVVCLLNNFYPREAKVQWKVDNALQSGNSQESVTEQDSKDSTYSLSSTLTLSKADYEKHKVYACEVTHQGLSSPVTKSFNRGEC			0.11	0.22	0.1	0.16
XENP16374 (bispecific antibody, anti-CD3 scFv H1.106_L1.47; also called Anti-CD20 (C2B8_H1.202_L1.113) x Anti-CD3 (H1.106_L1.47) Fab-scFv-Fc) HC 1 (Fab-Fc): QVQLVQSGAEVKKPGASVKVSCKASGYTFTSYNMHWVRQAPGQRLEWMGAIYPGNGATSYSQKFQGRVTITADTSASTAYMELSSLRSEDTAVYYCARSYYMGGDWYFDVWGAGTLVTVSSASTKGPSVFPLAPSSKSTSGGTAALGCLVKDYFPEPVTVSWNSGALTSGVHTFPAVLQSSGLYSLSSVVTVPSSSLGTQTYICNVNHKPSDTKVDKKVEPKSCDKTHTCPPCPAPPVAGPSVFLFPPKPKDTLMISRTPEVTCVVVDVKHEDPEVKFNWYVDGVEVHNAKTKPREEEYNSTYRVVSVLTVLHQDWLNGKEYKCKVSNKALPAPIEKTISKAKGQPREPQVYTLPPSREEMTKNQVSLTCDVSGFYPSDIAVEWESDGQPENNYKTTPPVLDSDGSFFLYSKLTVDKSRWEQGDVFSCSVMHEALHNHYTQKSLSLSPGK HC 2 (scFv-Fc): not shown light: QIVLTQSPSSLSASVGDRVTITCRASWSVSYIHWFQQKPGKSPKPLIYATSNLASGVPVRFSGSGSGTDYTLTISSLQPEDFATYYCQQWTHNPPTFGGGTKVEIKRTVAAPSVFIFPPSDEQLKSGTASVVCLLNNFYPREAKVQWKVDNALQSGNSQESVTEQDSKDSTYSLSSTLTLSKADYEKHKVYACEVTHQGLSSPVTKSFNRGEC				1.3		1.1
XENP16375 (bispecific antibody, anti-CD3 scFv H1.107_L1.47; also called Anti-CD20 (C2B8_H1.202_L1.113) x Anti-CD3 (H1.107_L1.47) Fab-scFv-Fc) HC 1 (Fab-Fc): QVQLVQSGAEVKKPGASVKVSCKASGYTFTSYNMHWVRQAPGQRLEWMGAIYPGNGATSYSQKFQGRVTITADTSASTAYMELSSLRSEDTAVYYCARSYYMGGDWYFDVWGAGTLVTVSSASTKGPSVFPLAPSSKSTSGGTAALGCLVKDYFPEPVTVSWNSGALTSGVHTFPAVLQSSGLYSLSSVVTVPSSSLGTQTYICNVNHKPSDTKVDKKVEPKSCDKTHTCPPCPAPPVAGPSVFLFPPKPKDTLMISRTPEVTCVVVDVKHEDPEVKFNWYVDGVEVHNAKTKPREEEYNSTYRVVSVLTVLHQDWLNGKEYKCKVSNKALPAPIEKTISKAKGQPREPQVYTLPPSREEMTKNQVSLTCDVSGFYPSDIAVEWESDGQPENNYKTTPPVLDSDGSFFLYSKLTVDKSRWEQGDVFSCSVMHEALHNHYTQKSLSLSPGK HC 2 (scFv-Fc): not shown light: QIVLTQSPSSLSASVGDRVTITCRASWSVSYIHWFQQKPGKSPKPLIYATSNLASGVPVRFSGSGSGTDYTLTISSLQPEDFATYYCQQWTHNPPTFGGGTKVEIKRTVAAPSVFIFPPSDEQLKSGTASVVCLLNNFYPREAKVQWKVDNALQSGNSQESVTEQDSKDSTYSLSSTLTLSKADYEKHKVYACEVTHQGLSSPVTKSFNRGEC				1		0.88
XENP16376 (bispecific antibody, anti-CD3 scFv H1.108_L1.47; also called Anti-CD20 (C2B8_H1.202_L1.113) x Anti-CD3 (H1.108_L1.47) Fab-scFv-Fc) HC 1 (Fab-Fc): QVQLVQSGAEVKKPGASVKVSCKASGYTFTSYNMHWVRQAPGQRLEWMGAIYPGNGATSYSQKFQGRVTITADTSASTAYMELSSLRSEDTAVYYCARSYYMGGDWYFDVWGAGTLVTVSSASTKGPSVFPLAPSSKSTSGGTAALGCLVKDYFPEPVTVSWNSGALTSGVHTFPAVLQSSGLYSLSSVVTVPSSSLGTQTYICNVNHKPSDTKVDKKVEPKSCDKTHTCPPCPAPPVAGPSVFLFPPKPKDTLMISRTPEVTCVVVDVKHEDPEVKFNWYVDGVEVHNAKTKPREEEYNSTYRVVSVLTVLHQDWLNGKEYKCKVSNKALPAPIEKTISKAKGQPREPQVYTLPPSREEMTKNQVSLTCDVSGFYPSDIAVEWESDGQPENNYKTTPPVLDSDGSFFLYSKLTVDKSRWEQGDVFSCSVMHEALHNHYTQKSLSLSPGK HC 2 (scFv-Fc): not shown light: QIVLTQSPSSLSASVGDRVTITCRASWSVSYIHWFQQKPGKSPKPLIYATSNLASGVPVRFSGSGSGTDYTLTISSLQPEDFATYYCQQWTHNPPTFGGGTKVEIKRTVAAPSVFIFPPSDEQLKSGTASVVCLLNNFYPREAKVQWKVDNALQSGNSQESVTEQDSKDSTYSLSSTLTLSKADYEKHKVYACEVTHQGLSSPVTKSFNRGEC				1.1		0.86
